Reference: patent US7910549 (INSTITUTE OF VIROLOGY OF THE SLOVAK ACADEMY OF SCIENCES, dated 2011)
Where no end group is shown, it is not given here.

B1: oligopeptide … (aa 75-98) [SEQ ID NO: 106] (peptide)
peptide: EDPPGEEDLPGEEDLPGEEDLPEV
B2: nonapeptide AITFNAQYA [SEQ ID NO: 138] (peptide)
peptide: AITFNAQYA-NH2
notes: Synthetic; phage-selected heptapeptide with alanine added on both sides
B3: nonapeptide ASASAPVSA [SEQ ID NO: 139] (peptide)
peptide: ASASAPVSA-NH2
notes: as for B2
B4: nonapeptide AKKMKRRKA [SEQ ID NO: 137] (peptide)
peptide: AKKMKRRKA-NH2
notes: as for B2

Assays:
[1] = biological target: T1, monoclonal antibody M75 (MAb M75), secreted by hybridoma VU-M75, ATCC HB 11128; experiment: competition ELISA (peptide against immobilized GST-MN for M75)
T1 construct: Mouse IgG; used as ascites fluid in the ELISA and in the cell adhesion tests; also called MAb 75

[2] = biological target: T2, GST-MN fusion protein (MN glutathione S-transferase), expressed in bacteria from pGEX-3X-MN (human, UniProt Q16790 38-459); experiment: competition ELISA on immobilized GST-MN; competitor M75
[3] = biological target: B1; experiment: phage display (Ph.D.-7): panning on immobilized peptide SEQ ID NO: 106, elution with M75, 5 cycles
[4] = biological target: T2, GST-MN fusion protein (MN glutathione …); experiment: phage display panning on GST-MN, elution with acetazolamide
[5] = biological target: T2, GST-MN fusion protein (MN glutathione …); experiment: phage display (Ph.D.-7): panning on wells coated with GST-MN, elution by acetazolamide, 3 rounds

Binder: B1
- IC50 [1]: 1 ng/mL

Binder: B2
- binding result [2]: binds

Binder: B3
- binding result [2]: binds

Binder: SASAPVS
- binding result [3]: binds

Binder: B4
- binding result [2]: binds

Binder: GQTRSPL [phage-displayed heptapeptide GQTRSPL (SEQ ID NO: 109)]
- binding result [4]: binds

Binder: GETRAPL [phage-displayed heptapeptide GETRAPL (SEQ ID NO: 107)]
- binding result [5]: binds

Binder: GETREPL [phage-displayed heptapeptide GETREPL (SEQ ID NO: 108)]
- binding result [5]: binds

Binder: KKMKRRK
- binding result [3]: binds

Binder: ITFNAQY
- binding result [3]: binds
